Results on one substance are retold here after patent US20130189255A1, “FUSIONS AND CONJUGATES OF INSULINOTROPIC AGENTS” (GLAXO GROUP LIMITED, priority 2008, published 2013).

On the set-up of the data set: species or system cynomolgus monkey (Macaca fascicularis). Conditions: cynomolgus monkey, in vivo, 0.1 mg/kg. On the procedure:
Briefly, protein was purified using batch absorption to protein L-agarose affinity resin followed by elution with glycine at pH 2.0 and neutralisation woth Tris PH 8.0. This was followed by ion exchange chromotography on a Resource S column using a 0-1M salt gradient in 20 mM acetate pH5.0. Fractions containing the desired protein were then combined and buffer exchanged into 100 mM NaCl, 20 mM citrate pH6.2. Protein was extensively QCed (including SDS-PAGE, mass spec, activity assay:GLP-1R-BA, pH check, osmolarity check), filter sterilised and endotoxin removed. Protein with confimed low endotoxin (<0.05 EU/mg protein) was then used for the in vivo study. Six female cynomolgus monkeys (Macaca fascicularis; Charles River Laboratories BRF, Houston, Tex., Primate Products, Miami, Fla. and/or Covance Research Products, Inc., Alice, Tex.) were used in this study. The monkeys were approximately 2 to 9 years old (with a body weight range of approximately 2 to 5 kilograms) at initiation of dosing. The monkeys were housed individually in stainless-steel cages in an environmentally controlled room(s) (64 F to 84 F; 30 to 70% relative humidity) with a 12-hour light/dark cycle. The female monkeys were offered approximately 6 biscuits twice daily of Monkey Diet #5038 (PMI Nutrition International, Richmond, Ind.) and a daily allotment of fresh fruit. […] Dose was at 0.1 mg/Kg. On the days of dosing, the first feeding occurred within approximately 1 hour post dose for each monkey (extended up to 2.5 hours post dose if study-related procedures required animals to be out of their local housing for an extended period of time). The second feeding was no sooner then two hours following the first feeding. For the purpose of environmental enrichment, additional fruit, legume and/or vegetable (e.g., grapes, baby carrots, peanuts) was provided to each monkey at or around the time of viability check or as a method of reward after acclimation or study-related procedures. Filtered tap water (supplied by Aqua Pennsylvania, Inc. and periodically analyzed) was available ad libitum. Plasma samples (approx 2 ml) were collected from the femoral vessel at predose (0 hour) and nominally at 5 minutes (iv group only), 0.5, 4, 8, 24, 48, 96, 144, 192, 288, 336, 504 and 672 hours after dosing. (PK samples from one of the animals in the iv dose group were only collected to 24 h so this animal has been excluded from the PK fitting). Analysis of samples was by mass spectrometry, and fitting of the data was using WinNonLin fitting software. PK parameters were as follows for iv administration (n=2): T1/2 67 h, MRT 46 h, Vz 327 ml/Kg and Cl 3.3 ml/hr/Kg; and for sc administration (n=3): T1/2 68 h, MRT 98 h, Vz 306 ml/Kg and Cl 3.1 ml/hr/Kg. Bioavailability was calculated as 99%.

Read-outs that look alike come from different tables or passages of the source.

As to “Exendin 4 (G4S linker)3 DOM7h-14 dAb fusion [DAT0115]”, the Bioavailability is 99%. Also, for the setting “iv”, the Cl turned out to be 3.3 mL/h/kg; the MRT – broadly, the average time that molecules of a dose stay in the body – worked out at 46 h; the T1/2 is 67 h; the Vz worked out at 0.327 L/kg. For the setting “sc”, this substance had a Cl of 3.1 mL/h/kg, an MRT of 98 h, a T1/2 of 68 h and a Vz of 0.306 L/kg.
